Values quoted from earlier work in US20010039026A1, “Assay method” (priority 2000, published 2001).

What was measured:
[1] = biological target: T1, CCCKR5 (Homo sapiens, UniProt P51681); conditions: transfected CHO-K1 cells
T1 construct: expressed in transfected cells; host or cells: CHO-K1 (stably transfected)

[2] = tested on: primary, nonsyncytium-inducing (NSI) HIV-1 strains; conditions: primary NSI HIV-1 strains
[3] = tested on: env-mediated cell-cell fusion

T1 sequence (P51681 whole entry): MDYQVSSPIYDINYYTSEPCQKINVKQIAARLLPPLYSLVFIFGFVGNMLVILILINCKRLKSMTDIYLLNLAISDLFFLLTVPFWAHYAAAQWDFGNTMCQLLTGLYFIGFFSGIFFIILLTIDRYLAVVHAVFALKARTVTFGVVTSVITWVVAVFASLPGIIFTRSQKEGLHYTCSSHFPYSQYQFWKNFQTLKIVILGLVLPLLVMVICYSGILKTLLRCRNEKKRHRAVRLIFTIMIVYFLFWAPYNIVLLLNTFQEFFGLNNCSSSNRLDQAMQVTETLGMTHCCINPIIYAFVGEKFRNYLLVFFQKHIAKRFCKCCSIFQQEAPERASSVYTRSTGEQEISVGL

B1: MIP-1-β: macrophage inflammatory protein, β-chemokine ligand of CCR5 (protein, UniProt P13236 24-92, looked up)
C-C motif chemokine 4: APMGSDPPTACCFSYTARKLPRNFVVDYYETSSLCSQPAVVFQTKRSKQVCADPSESWVQEYVYDLELN
- agonist activity at CCCKR5 [1]: active at physiologic concentrations
- inhibition of infection of CD4(+) cells at the virus entry stage [2]: inhibit infection
- block of env-mediated cell-cell fusion [3]: block env-mediated cell-cell fusion
